# Data published in the RNAGym collection of RNA variant scans (doi:10.7554/elife.80360).
# B1: HDV Ribozyme (parent)
# chain: GGCCGGCAUGGUCCCAGCCUCCUCGCUGGCGCCGGCUGGGCAACAUUCCGAGGGGACCGUCCCCUCGGUAAUGGCGAAUGGGACCCA
# Variants of: B1
# Assay: self-cleavage, relative activity (ratio to wild type); higher = more cleavage; co-transcriptional
row,Variant,self-cleavage
1,GGCCGGCAUGGUCCCAGCCUCCUCGCUGGCGCCGGCUGGGCAACAUUCCGAGGGGACCGUCCCCUCGCUAAUGGCGAAGGGGACCCA [G68C U79G],0.516
2,GGCCGGCAUGGUCCCAGCCUCCUCGCUGGCGCCGGCUGGGCAACAUUCCGAGGGGACCGUCCCCUCGGAAUUGGCGAAUGGGACCCA [U69A A71U],1.27
3,GGCCGGCAUGGUCCCAGCCUCCUCGCUGGCGCCGGCUGGGCAACAUUCCGAGGGGACCGUCCCCUCGGAACUGGCGAAUGGGACCCA [U69A A71C],0.935
4,GGCCGGCAUGGUCCCAGCCUCCUCGCUGGCGCCGGCUGGGCAACAUUCCGAGGGGACCGUCCCCUCGUUAAUGGAGAAUGGGACCCA [G68U C75A],0.234
5,GGCCGGCAUGGUCCCAGCCUCCUCGCUGGCGCCGGCUGGGCAACAUUCCGAGGGGACCGUCCCCUCGCUAAUGGCGAAUGGGUCCCA [G68C A83U],0.318
6,GGCCGGCAUGGUCCCAGCCUCCUCGCUGGCGCCGGCUGGGCAACAUUCCGAGGGGACCGUCCCCUCGCUAGUGGCGAAUGGGACCCA [G68C A71G],0.831
7,GGCCGGCAUGGUCCCAGCCUCCUCGCUGGCGCCGGCUGGGCAACAUUCCGAGGGGACCGUCCCCUCGUUAAUGGCGAAUGGGACACA [G68U C85A],0.707
8,GGCCGGCAUGGUCCCAGCCUCCUCGCUGGCGCCGGCUGGGCAACAUUCCGAGGGGACCGUCCCCUCGGAAAUGGCGAGUGGGACCCA [U69A A78G],0.959
9,GGCCGGCAUGGUCCCAGCCUCCUCGCUGGCGCCGGCUGGGCAACAUUCCGAGGGGACCGUCCCCUCGUUAAUGCCGAAUGGGACCCA [G68U G74C],0.222
10,GGCCGGCAUGGUCCCAGCCUCCUCGCUGGCGCCGGCUGGGCAACAUUCCGAGGGGACCGUCCCCUCGUUAAUGACGAAUGGGACCCA [G68U G74A],0.328
11,GGCCGGCAUGGUCCCAGCCUCCUCGCUGGCGCCGGCUGGGCAACAUUCCGAGGGGACCGUCCCCUCGCUAAUGACGAAUGGGACCCA [G68C G74A],0.362
12,GGCCGGCAUGGUCCCAGCCUCCUCGCUGGCGCCGGCUGGGCAACAUUCCGAGGGGACCGUCCCCUCGUUAAUGGCGACUGGGACCCA [G68U A78C],0.161
13,GGCCGGCAUGGUCCCAGCCUCCUCGCUGGCGCCGGCUGGGCAACAUUCCGAGGGGACCGUCCCCUCGCUAAUGGCGAAUGGGACACA [G68C C85A],1.17
14,GGCCGGCAUGGUCCCAGCCUCCUCGCUGGCGCCGGCUGGGCAACAUUCCGAGGGGACCGUCCCCUCGUUAAUGGCGAAUGGGACCCA [G68U],0.932
15,GGCCGGCAUGGUCCCAGCCUCCUCGCUGGCGCCGGCUGGGCAACAUUCCGAGGGGACCGUCCCCUCGCUAAUGGCGAAUGGGACCCU [G68C A87U],0.799
16,GGCCGGCAUGGUCCCAGCCUCCUCGCUGGCGCCGGCUGGGCAACAUUCCGAGGGGACCGUCCCCUCGUUAAUGGCGAAUGGGCCCCA [G68U A83C],0.538

row,Variant,self-cleavage
1,GGCCGGCAUGGUCCCAGCCUCCUCGCUGGCGCCGGCUGGGCAACAUUCCGAGGGGACCGUCCCCUCGUUAAUGGCCAAUGGGACCCA [G68U G76C],1.11
2,GGCCGGCAUGGUCCCAGCCUCCUCGCUGGCGCCGGCUGGGCAACAUUCCGAGGGGACCGUCCCCUCGUUAAUGGCGAAUGUGACCCA [G68U G81U],0.197
3,GGCCGGCAUGGUCCCAGCCUCCUCGCUGGCGCCGGCUGGGCAACAUUCCGAGGGGACCGUCCCCUCGUUAAUGGCGAAUGAGACCCA [G68U G81A],0.492
4,GGCCGGCAUGGUCCCAGCCUCCUCGCUGGCGCCGGCUGGGCAACAUUCCGAGGGGACCGUCCCCUCGUCAAUGGCGAAUGGGACCCA [G68U U69C],0.935
5,GGCCGGCAUGGUCCCAGCCUCCUCGCUGGCGCCGGCUGGGCAACAUUCCGAGGGGACCGUCCCCUCGUUAAUGGCGAAUUGGACCCA [G68U G80U],0.257
6,GGCCGGCAUGGUCCCAGCCUCCUCGCUGGCGCCGGCUGGGCAACAUUCCGAGGGGACCGUCCCCUCGCUAAAGGCGAAUGGGACCCA [G68C U72A],0.499
7,GGCCGGCAUGGUCCCAGCCUCCUCGCUGGCGCCGGCUGGGCAACAUUCCGAGGGGACCGUCCCCUCGCUAACGGCGAAUGGGACCCA [G68C U72C],0.38
8,GGCCGGCAUGGUCCCAGCCUCCUCGCUGGCGCCGGCUGGGCAACAUUCCGAGGGGACCGUCCCCUCGCUAAUGGCGAAUGAGACCCA [G68C G81A],0.526
9,GGCCGGCAUGGUCCCAGCCUCCUCGCUGGCGCCGGCUGGGCAACAUUCCGAGGGGACCGUCCCCUCGGAGAUGGCGAAUGGGACCCA [U69A A70G],0.98
10,GGCCGGCAUGGUCCCAGCCUCCUCGCUGGCGCCGGCUGGGCAACAUUCCGAGGGGACCGUCCCCUCGUUAAUUGCGAAUGGGACCCA [G68U G73U],0.0923
11,GGCCGGCAUGGUCCCAGCCUCCUCGCUGGCGCCGGCUGGGCAACAUUCCGAGGGGACCGUCCCCUCGUUAAUCGCGAAUGGGACCCA [G68U G73C],0.205
12,GGCCGGCAUGGUCCCAGCCUCCUCGCUGGCGCCGGCUGGGCAACAUUCCGAGGGGACCGUCCCCUCGGAAAUGGCGGAUGGGACCCA [U69A A77G],0.72
13,GGCCGGCAUGGUCCCAGCCUCCUCGCUGGCGCCGGCUGGGCAACAUUCCGAGGGGACCGUCCCCUCGUUAAUGGCGGAUGGGACCCA [G68U A77G],0.578
14,GGCCGGCAUGGUCCCAGCCUCCUCGCUGGCGCCGGCUGGGCAACAUUCCGAGGGGACCGUCCCCUCGUUAAUGGCGCAUGGGACCCA [G68U A77C],0.232
15,GGCCGGCAUGGUCCCAGCCUCCUCGCUGGCGCCGGCUGGGCAACAUUCCGAGGGGACCGUCCCCUCGCUAAUGGCGAAUGGCACCCA [G68C G82C],0.259
16,GGCCGGCAUGGUCCCAGCCUCCUCGCUGGCGCCGGCUGGGCAACAUUCCGAGGGGACCGUCCCCUCGCUAAUGGCGAGUGGGACCCA [G68C A78G],0.426
